Assay results reported in US20170037111A1, “Novel peptides and combination of peptides for use in immunotherapy against ovarian cancer and other cancers” (immatics biotechnologies GmbH, priority 2015, published 2017).

target: HLA-A*02:01 (Homo sapiens, UniProt P04439, D140Y/D185E/D98H/E176V/E277Q/G131W/G231S/I119V/I121R/I166T/I218V/L300P/L318F/N151K/N90K/P208A/P217A/Q86G/Q94H/R138H/R169H/T345S); experiment: MHC binding assay (UV-ligand exchange, β2m ELISA, peptide exchange yield); conditions: MHC class I binding score; binding to HLA-A*02:01 ranged by peptide exchange yield (UV-ligand exchange, β2m ELISA)
Method in brief: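 Peptide–HLA-A*02:01 complexes were formed by UV-mediated exchange of a UV-cleavable ligand for the test peptide. Exchange yield was measured by capturing complexes on streptavidin, detecting with HRP anti-β2m antibody (1 h, 37°C) and reading TMB absorbance at 450 nm.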

Substance	Peptide exchange
62 (VLLDVSAGQLLM; listed as Homo sapiens) [compound 62]	″++++″ (≧75% = ++++)
303 (AILPQLFMV; listed as Homo sapiens) [compound 303]	″++++″ (≧75% = ++++)
548 (ALWENPESGEL; listed as Homo sapiens) [compound 548]	″++″ (≧20% = ++)
365 (YVIDQGETDVYV; listed as Homo sapiens) [compound 365]	″+++″ (≧50% = +++)
236 (GLLEAKVSL; listed as Homo sapiens) [compound 236]	″+++″ (≧50% = +++)
551 (KLYESLLPFA; listed as Homo sapiens) [compound 551]	″+++″ (≧50% = +++)
169 (NLPEYLPFV; listed as Homo sapiens) [compound 169]	″+++″ (≧50% = +++)
599 (YLLNDASLISV; listed as Homo sapiens) [compound 599]	″+++″ (≧50% = +++)
392 (ALLHPQGFEV; listed as Homo sapiens) [compound 392]	″++″ (≧20% = ++)
400 (SLLTEQDLWTV; listed as Homo sapiens) [compound 400]	″++″ (≧20% = ++)
136 (YLADPSNLFVV; listed as Homo sapiens) [compound 136]	″+++″ (≧50% = +++)
139 (SVMEVNSGIYRV; listed as Homo sapiens) [compound 139]	″+++″ (≧50% = +++)
159 (GLVGNPLPSV; listed as Homo sapiens) [compound 159]	″++++″ (≧75% = ++++)
430 (HLYSSIEHLTT; listed as Homo sapiens) [compound 430]	″+++″ (≧50% = +++)
524 (ALIENLTHQI; listed as Homo sapiens) [compound 524]	″++″ (≧20% = ++)
93 (LLQAIKLYL; listed as Homo sapiens) [compound 93]	″++″ (≧20% = ++)
52 (FLLAHGLGFLL; listed as Homo sapiens) [compound 52]	″++++″ (≧75% = ++++)
221 (ALYEEGLLL; listed as Homo sapiens) [compound 221]	″++″ (≧20% = ++)
375 (SLTETIEGV; listed as Homo sapiens) [compound 375]	″++″ (≧20% = ++)
440 (ALADGVTMQV; listed as Homo sapiens) [compound 440]	″++″ (≧20% = ++)

Substance	Peptide exchange
481 (GLIEDYEALL; listed as Homo sapiens) [compound 481]	″+++″ (≧50% = +++)
314 (ALIAEGIALV; listed as Homo sapiens) [compound 314]	″+++″ (≧50% = +++)
527 (FLLEPGNLEV; listed as Homo sapiens) [compound 527]	″++++″ (≧75% = ++++)
67 (TLLAEALVTV; listed as Homo sapiens) [compound 67]	″+++″ (≧50% = +++)
606 (ALWETEVYI; listed as Homo sapiens) [compound 606]	″+++″ (≧50% = +++)
286 (YLFPGIPEL; listed as Homo sapiens) [compound 286]	″+++″ (≧50% = +++)
174 (ALAQYLITA; listed as Homo sapiens) [compound 174]	″+++″ (≧50% = +++)
9 (GAAKDLPGV; listed as Homo sapiens) [compound 9]	″++″ (≧20% = ++)
520 (LAVHPSGVAL; listed as Homo sapiens) [compound 520]	″+″ (≧10% = +)
183 (FGLDLVTEL; listed as Homo sapiens) [compound 183]	″+++″ (≧50% = +++)
444 (GLLRDEALAEV; listed as Homo sapiens) [compound 444]	″+++″ (≧50% = +++)
4 (GIMEHITKI; listed as Homo sapiens) [compound 4]	″++++″ (≧75% = ++++)
618 (VLFDSESIGIYV; listed as Homo sapiens) [compound 618]	″+++″ (≧50% = +++)
366 (RLLDMGETDLML; listed as Homo sapiens) [compound 366]	″+++″ (≧50% = +++)
145 (FLATSGTLAGI; listed as Homo sapiens) [compound 145]	″++″ (≧20% = ++)
587 (VMNDRLYAI; listed as Homo sapiens) [compound 587]	″+++″ (≧50% = +++)
472 (KLLEVSDDPQV; listed as Homo sapiens) [compound 472]	″+++″ (≧50% = +++)
42 (VLLQKIVSA; listed as Homo sapiens) [compound 42]	″+++″ (≧50% = +++)
1 (SLMEPPAVLLL; listed as Homo sapiens) [compound 1]	″+++″ (≧50% = +++)
251 (ALYTGFSILV; listed as Homo sapiens) [compound 251]	″++″ (≧20% = ++)

Substance	Peptide exchange
307 (ALPVSLPQI; listed as Homo sapiens) [compound 307]	″+++″ (≧50% = +++)
300 (ALLGQTFSL; listed as Homo sapiens) [compound 300]	″+++″ (≧50% = +++)
339 (GLWEIENNPTVKA; listed as Homo sapiens) [compound 339]	″++++″ (≧75% = ++++)
193 (QLLDADGFLNV; listed as Homo sapiens) [compound 193]	″+++″ (≧50% = +++)
256 (FLPPEHTIVYI; listed as Homo sapiens) [compound 256]	″+++″ (≧50% = +++)
142 (FLFATPVFI; listed as Homo sapiens) [compound 142]	″+++″ (≧50% = +++)
249 (LLDGFLVNV; listed as Homo sapiens) [compound 249]	″+++″ (≧50% = +++)
594 (IMLKGDNITL; listed as Homo sapiens) [compound 594]	″+++″ (≧50% = +++)
569 (KLVDRTWTL; listed as Homo sapiens) [compound 569]	″+++″ (≧50% = +++)
248 (FLFPNQYVDV; listed as Homo sapiens) [compound 248]	″+++″ (≧50% = +++)
83 (ILAPTVMMI; listed as Homo sapiens) [compound 83]	″+++″ (≧50% = +++)
344 (YLQDQHLLLTV; listed as Homo sapiens) [compound 344]	″+++″ (≧50% = +++)
450 (FMIDASVHPTL; listed as Homo sapiens) [compound 450]	″+++″ (≧50% = +++)
571 (LLLTTIPQI; listed as Homo sapiens) [compound 571]	″+++″ (≧50% = +++)
438 (KLLPLAGLYL; listed as Homo sapiens) [compound 438]	″++++″ (≧75% = ++++)
434 (KVSNSGITRV; listed as Homo sapiens) [compound 434]	″++″ (≧20% = ++)
217 (ALIHPVSTV; listed as Homo sapiens) [compound 217]	″++″ (≧20% = ++)
275 (YLVYILNEL; listed as Homo sapiens) [compound 275]	″++″ (≧20% = ++)
